Measurements: patent publication US20150344570A1 (published 2015)

B1: GpH7-B3 variant K326_15Y/GpL16-k0 (antibody, human IgG1, kappa)
heavy: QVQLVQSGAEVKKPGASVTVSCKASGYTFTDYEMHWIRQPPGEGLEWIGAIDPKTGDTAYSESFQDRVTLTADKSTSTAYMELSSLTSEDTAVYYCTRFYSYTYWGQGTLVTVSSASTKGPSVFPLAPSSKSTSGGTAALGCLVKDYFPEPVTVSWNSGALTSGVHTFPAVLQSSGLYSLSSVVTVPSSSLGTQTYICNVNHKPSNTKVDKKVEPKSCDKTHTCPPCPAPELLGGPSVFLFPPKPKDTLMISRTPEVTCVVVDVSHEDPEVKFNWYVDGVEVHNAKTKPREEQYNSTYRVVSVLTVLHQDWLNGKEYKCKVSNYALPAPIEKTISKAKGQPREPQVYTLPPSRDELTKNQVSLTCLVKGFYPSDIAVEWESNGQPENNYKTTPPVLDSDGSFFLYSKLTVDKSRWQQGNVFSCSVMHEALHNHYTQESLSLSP
light: DIVMTQSPLSLPVTPGEPASISCQASESLVHSNRNTYLHWYLQKPGQSPQLLIYKVSNRFSGVPDRFSGSGSGTDFTLKISRVEAEDVGVYYCSQNTHVPPTFGQGTKVEIERTVAAPSVFIFPPSDEQLKSGTASVVCLLNNFYPREAKVQWKVDNALQSGNSQESVTEQDSKDSTYSLSSTLTLSKADYEKHKVYACEVTHQGLSSPVTKSFNRGEC
notes: also called Ho Ab K326_15Y
B2: GpH7-A5/GpH7-B3 variant K334_01G/GpL16-k0 (antibody, human IgG1, kappa)
heavy 1: not shown
heavy 2: not shown
light: B1 light
notes: also called He Ab K334_01G
B3: GpH7-B3 variant K334_19Q/GpL16-k0 (antibody, human IgG1, kappa)
heavy: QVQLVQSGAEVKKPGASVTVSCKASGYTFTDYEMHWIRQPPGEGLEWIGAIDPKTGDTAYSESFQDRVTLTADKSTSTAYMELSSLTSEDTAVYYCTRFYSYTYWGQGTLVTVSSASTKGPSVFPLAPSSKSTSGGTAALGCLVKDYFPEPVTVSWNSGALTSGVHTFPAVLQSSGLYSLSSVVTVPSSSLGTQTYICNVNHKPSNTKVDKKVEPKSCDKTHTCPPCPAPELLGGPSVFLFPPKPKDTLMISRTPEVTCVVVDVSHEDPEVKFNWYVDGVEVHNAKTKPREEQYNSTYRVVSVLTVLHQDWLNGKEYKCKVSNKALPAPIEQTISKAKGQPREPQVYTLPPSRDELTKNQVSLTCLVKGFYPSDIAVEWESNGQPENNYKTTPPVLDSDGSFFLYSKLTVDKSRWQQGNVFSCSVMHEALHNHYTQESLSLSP
light: B1 light
notes: also called Ho Ab K334_19Q
B4: GpH7-A5/GpH7-B3 variant I332_15Y/GpL16-k0 (antibody, human IgG1, kappa)
heavy 1: not shown
heavy 2: not shown
light: B1 light
notes: also called He Ab I332_15Y
B5: GpH7-A5/GpH7-B3 variant H268_09D/GpL16-k0 (antibody, human IgG1, kappa)
heavy 1: not shown
heavy 2: not shown
light: B1 light
notes: also called He Ab H268_09D
B6: GpH7-B3 variant K334_15Y/GpL16-k0 (antibody, human IgG1, kappa)
heavy: not shown
light: B1 light
notes: also called Ho Ab K334_15Y
B7: GpH7-B3 variant S267_02A/GpL16-k0 (antibody, human IgG1, kappa)
heavy: not shown
light: B1 light
notes: also called Ho Ab S267_02A
B8: GpH7-A5/GpH7-B3 variant I332_02A/GpL16-k0 (antibody, human IgG1, kappa)
heavy 1: not shown
heavy 2: not shown
light: B1 light
notes: also called He Ab I332_02A
B9: GpH7-B3 variant K334_04F/GpL16-k0 (antibody, human IgG1, kappa)
heavy: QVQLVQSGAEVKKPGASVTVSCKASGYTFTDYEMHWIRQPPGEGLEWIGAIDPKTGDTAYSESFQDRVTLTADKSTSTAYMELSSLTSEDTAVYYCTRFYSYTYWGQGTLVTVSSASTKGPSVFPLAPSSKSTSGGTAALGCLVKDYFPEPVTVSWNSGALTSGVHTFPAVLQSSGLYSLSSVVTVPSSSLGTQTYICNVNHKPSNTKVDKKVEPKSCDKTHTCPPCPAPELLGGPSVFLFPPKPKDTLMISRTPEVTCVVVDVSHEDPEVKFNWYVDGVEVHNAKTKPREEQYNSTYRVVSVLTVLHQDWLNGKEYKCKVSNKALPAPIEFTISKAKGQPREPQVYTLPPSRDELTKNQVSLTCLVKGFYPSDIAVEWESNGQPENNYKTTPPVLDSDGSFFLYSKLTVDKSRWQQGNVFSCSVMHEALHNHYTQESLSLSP
light: B1 light
notes: also called Ho Ab K334_04F
B10: GpH7-B3 variant K334_10E/GpL16-k0 (antibody, human IgG1, kappa)
heavy: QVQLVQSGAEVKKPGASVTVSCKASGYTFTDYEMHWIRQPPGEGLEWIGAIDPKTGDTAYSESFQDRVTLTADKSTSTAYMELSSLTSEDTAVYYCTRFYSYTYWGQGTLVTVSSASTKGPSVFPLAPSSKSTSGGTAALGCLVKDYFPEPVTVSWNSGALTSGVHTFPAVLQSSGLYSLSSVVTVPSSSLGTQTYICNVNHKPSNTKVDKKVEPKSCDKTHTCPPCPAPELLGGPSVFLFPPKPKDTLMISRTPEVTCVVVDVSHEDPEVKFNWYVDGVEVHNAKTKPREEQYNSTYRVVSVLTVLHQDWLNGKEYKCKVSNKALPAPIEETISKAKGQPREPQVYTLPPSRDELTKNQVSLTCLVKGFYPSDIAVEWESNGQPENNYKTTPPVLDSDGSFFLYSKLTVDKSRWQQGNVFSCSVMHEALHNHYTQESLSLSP
light: B1 light
notes: also called Ho Ab K334_10E
B11: GpH7-A5/GpH7-B3 variant A330_04F/GpL16-k0 (antibody, human IgG1, kappa)
heavy 1: not shown
heavy 2: not shown
light: B1 light
notes: also called He Ab A330_04F
B12: GpH7-B3 variant K334_09D/GpL16-k0 (antibody, human IgG1, kappa)
heavy: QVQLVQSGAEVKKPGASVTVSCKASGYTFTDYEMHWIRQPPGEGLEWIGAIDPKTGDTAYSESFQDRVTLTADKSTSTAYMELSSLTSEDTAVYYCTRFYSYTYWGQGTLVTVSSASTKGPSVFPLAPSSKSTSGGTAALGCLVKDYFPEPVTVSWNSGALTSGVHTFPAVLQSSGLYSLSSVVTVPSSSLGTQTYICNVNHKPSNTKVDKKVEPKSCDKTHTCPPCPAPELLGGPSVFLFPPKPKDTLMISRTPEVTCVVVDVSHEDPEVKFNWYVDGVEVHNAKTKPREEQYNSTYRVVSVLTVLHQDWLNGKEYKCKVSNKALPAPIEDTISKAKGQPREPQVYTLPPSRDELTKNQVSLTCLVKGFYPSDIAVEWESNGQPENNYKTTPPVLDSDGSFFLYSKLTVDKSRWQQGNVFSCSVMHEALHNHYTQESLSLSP
light: B1 light
notes: also called Ho Ab K334_09D
B13: GpH7-A5/GpH7-B3 variant I332_14T/GpL16-k0 (antibody, human IgG1, kappa)
heavy 1: not shown
heavy 2: not shown
light: B1 light
notes: also called He Ab I332_14T
B14: GpH7-A5/GpH7-B3 variant H268_13S/GpL16-k0 (antibody, human IgG1, kappa)
heavy 1: not shown
heavy 2: not shown
light: B1 light
notes: also called He Ab H268_13S
B15: GpH7-A5/GpH7-B3 variant K326_08L/GpL16-k0 (antibody, human IgG1, kappa)
heavy 1: not shown
heavy 2: not shown
light: B1 light
notes: also called He Ab K326_08L
B16: GpH7-B3 variant K326_19Q/GpL16-k0 (antibody, human IgG1, kappa)
heavy: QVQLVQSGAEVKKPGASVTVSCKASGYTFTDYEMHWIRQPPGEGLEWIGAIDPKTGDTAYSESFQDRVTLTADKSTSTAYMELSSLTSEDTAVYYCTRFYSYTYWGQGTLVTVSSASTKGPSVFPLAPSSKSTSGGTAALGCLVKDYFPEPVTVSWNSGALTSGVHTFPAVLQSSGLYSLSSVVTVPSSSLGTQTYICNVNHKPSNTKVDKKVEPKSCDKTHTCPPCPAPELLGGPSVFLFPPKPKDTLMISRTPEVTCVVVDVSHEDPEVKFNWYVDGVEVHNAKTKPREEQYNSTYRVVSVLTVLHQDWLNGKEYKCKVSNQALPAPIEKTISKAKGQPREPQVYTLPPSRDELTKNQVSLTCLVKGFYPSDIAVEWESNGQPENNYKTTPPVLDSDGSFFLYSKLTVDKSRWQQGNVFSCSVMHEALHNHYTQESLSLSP
light: B1 light
notes: also called Ho Ab K326_19Q
B17: GpH7-B3 variant K334_08L/GpL16-k0 (antibody, human IgG1, kappa)
heavy: not shown
light: B1 light
notes: also called Ho Ab K334_08L
B18: GpH7-A5/GpH7-B3 variant I336_18N/GpL16-k0 (antibody, human IgG1, kappa)
heavy 1: not shown
heavy 2: not shown
light: B1 light
notes: also called He Ab I336_18N
B19: GpH7-B3 variant S337_10E/GpL16-k0 (antibody, human IgG1, kappa)
heavy: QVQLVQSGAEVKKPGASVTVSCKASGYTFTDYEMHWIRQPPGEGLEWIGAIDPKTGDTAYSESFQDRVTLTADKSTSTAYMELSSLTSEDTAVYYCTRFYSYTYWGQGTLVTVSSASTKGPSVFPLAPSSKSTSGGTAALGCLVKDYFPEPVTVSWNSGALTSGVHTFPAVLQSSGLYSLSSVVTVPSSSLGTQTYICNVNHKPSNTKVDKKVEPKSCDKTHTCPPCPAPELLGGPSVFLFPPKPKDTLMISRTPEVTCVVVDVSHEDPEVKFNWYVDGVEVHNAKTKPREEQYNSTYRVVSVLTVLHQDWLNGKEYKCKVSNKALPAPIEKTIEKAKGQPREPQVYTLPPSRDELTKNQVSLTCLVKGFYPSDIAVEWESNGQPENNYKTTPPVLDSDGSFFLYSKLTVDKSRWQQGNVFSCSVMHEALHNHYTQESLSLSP
light: B1 light
notes: also called Ho Ab S337_10E
B20: GpH7-A5/GpH7-B3 variant K326_04F/GpL16-k0 (antibody, human IgG1, kappa)
heavy 1: not shown
heavy 2: not shown
light: B1 light
notes: also called He Ab K326_04F
B21: GpH7-A5/GpH7-B3 variant K326_03V/GpL16-k0 (antibody, human IgG1, kappa)
heavy 1: not shown
heavy 2: not shown
light: B1 light
notes: also called He Ab K326_03V
B22: GpH7-B3 variant K334_14T/GpL16-k0 (antibody, human IgG1, kappa)
heavy: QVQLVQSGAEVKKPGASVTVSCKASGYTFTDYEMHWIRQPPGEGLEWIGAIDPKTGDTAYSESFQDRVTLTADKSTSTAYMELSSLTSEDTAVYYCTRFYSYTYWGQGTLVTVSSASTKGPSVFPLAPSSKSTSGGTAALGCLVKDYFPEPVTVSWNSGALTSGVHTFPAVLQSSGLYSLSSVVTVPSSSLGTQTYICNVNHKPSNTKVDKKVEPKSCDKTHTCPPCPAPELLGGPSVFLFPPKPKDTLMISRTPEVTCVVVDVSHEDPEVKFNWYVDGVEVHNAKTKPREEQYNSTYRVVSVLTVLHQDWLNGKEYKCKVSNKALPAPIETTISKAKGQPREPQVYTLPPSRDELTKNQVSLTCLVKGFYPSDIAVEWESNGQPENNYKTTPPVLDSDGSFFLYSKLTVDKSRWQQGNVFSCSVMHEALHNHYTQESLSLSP
light: B1 light
notes: also called Ho Ab K334_14T
B23: GpH7-B3 variant Q295_02A/GpL16-k0 (antibody, human IgG1, kappa)
heavy: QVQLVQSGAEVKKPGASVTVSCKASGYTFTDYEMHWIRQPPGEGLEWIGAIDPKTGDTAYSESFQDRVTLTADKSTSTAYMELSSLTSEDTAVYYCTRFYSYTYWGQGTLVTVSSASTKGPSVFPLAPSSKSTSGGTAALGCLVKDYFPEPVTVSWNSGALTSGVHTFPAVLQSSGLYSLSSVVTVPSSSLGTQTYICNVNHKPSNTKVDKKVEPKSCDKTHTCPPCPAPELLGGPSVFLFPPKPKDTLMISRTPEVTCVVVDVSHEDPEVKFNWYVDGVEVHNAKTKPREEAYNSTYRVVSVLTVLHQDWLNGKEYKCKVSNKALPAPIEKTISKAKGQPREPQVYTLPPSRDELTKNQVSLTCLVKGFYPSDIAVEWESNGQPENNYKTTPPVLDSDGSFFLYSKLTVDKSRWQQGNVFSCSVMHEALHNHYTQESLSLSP
light: B1 light
notes: also called Ho Ab Q295_02A
B24: GpH7-A5/GpH7-B3 variant I332_10E/GpL16-k0 (antibody, human IgG1, kappa)
heavy 1: not shown
heavy 2: not shown
light: B1 light
notes: also called He Ab I332_10E
B25: GpH7-A5/GpH7-B3 variant I336_13S/GpL16-k0 (antibody, human IgG1, kappa)
heavy 1: not shown
heavy 2: not shown
light: B1 light
notes: also called He Ab I336_13S
B26: GpH7-A5/GpH7-B3 variant I332_09D/GpL16-k0 (antibody, human IgG1, kappa)
heavy 1: not shown
heavy 2: not shown
light: B1 light
notes: also called He Ab I332_09D
B27: GpH7-A5/GpH7-B3 variant I336_09D/GpL16-k0 (antibody, human IgG1, kappa)
heavy 1: not shown
heavy 2: not shown
light: B1 light
notes: also called He Ab I336_09D
B28: GpH7-A5/GpH7-B3 variant I336_06M/GpL16-k0 (antibody, human IgG1, kappa)
heavy 1: not shown
heavy 2: not shown
light: B1 light
notes: also called He Ab I336_06M
B29: GpH7-B3 variant K334_02A/GpL16-k0 (antibody, human IgG1, kappa)
heavy: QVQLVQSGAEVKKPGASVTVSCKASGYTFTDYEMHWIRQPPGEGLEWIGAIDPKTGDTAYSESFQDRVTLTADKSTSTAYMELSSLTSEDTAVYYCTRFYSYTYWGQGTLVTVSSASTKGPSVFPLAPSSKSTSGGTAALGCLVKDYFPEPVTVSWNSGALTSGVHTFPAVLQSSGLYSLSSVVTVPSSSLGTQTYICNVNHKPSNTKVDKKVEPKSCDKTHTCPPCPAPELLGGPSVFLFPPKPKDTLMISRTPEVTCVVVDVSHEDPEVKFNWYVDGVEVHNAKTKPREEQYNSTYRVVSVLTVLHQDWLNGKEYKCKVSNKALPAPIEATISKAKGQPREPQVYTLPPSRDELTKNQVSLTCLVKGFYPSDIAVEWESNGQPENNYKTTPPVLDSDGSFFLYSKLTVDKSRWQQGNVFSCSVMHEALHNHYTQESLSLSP
light: B1 light
notes: also called Ho Ab K334_02A

Target: T1, FcγRIIIa extracellular domain with C-terminal His tag (human, UniProt P08637 17-208)
T1 construct: extracellular domain; also called FcgRIIIa; 3a; not shown: His tag attached to the C terminus
Assay: SPR Biacore, captured antibody, FcγR analyte, relative binding
Description: Analysis of interaction between objective antibody and the FcγR was carried out using Biacore T100 (GE Healthcare). HBS-EP+ (GE Healthcare) was used as the running buffer, and the measurement temperature was set to 25° C. Chips produced by immobilizing the antigen peptide by the amine coupling method to a Series S Sencor Chip CM5 (GE Healthcare), or alternatively, chips produced by allowing preliminarily biotinylated antigen peptides to interact with and immobilize onto a Series S Sensor Chip SA (certified) (GE Healthcare) were used. Antibodies of interest were captured onto an antigen peptide-immobilized chip, and allowed to interact to each FcγR diluted with running buffer. To regenerate and repeatedly use the chip, the antibodies captured on the chip were washed off by reacting 10 mM glycine-HCl, pH 1.5.

T1 sequence (P08637 17-208): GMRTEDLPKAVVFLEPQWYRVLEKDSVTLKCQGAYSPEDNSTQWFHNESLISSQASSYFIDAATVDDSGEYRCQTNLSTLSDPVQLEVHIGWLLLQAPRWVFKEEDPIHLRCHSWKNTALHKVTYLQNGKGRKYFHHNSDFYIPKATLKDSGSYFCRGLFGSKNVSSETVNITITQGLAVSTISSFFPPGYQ

Row | Ho/Con_3a | He/Con_3a | Binder
1 | 115 % of HoCon Ab GpH7-B3/GpL16-k0 (=100) | – | B1
2 | – | 121 % of HeCon Ab GpH7-A5/GpH7-B3/GpL16-k0 (=100) | B2
3 | 150 % of HoCon Ab GpH7-B3/GpL16-k0 (=100) | – | B3
4 | – | 101 % of HeCon Ab GpH7-A5/GpH7-B3/GpL16-k0 (=100) | B4
5 | – | 197 % of HeCon Ab GpH7-A5/GpH7-B3/GpL16-k0 (=100) | B5
6 | 181 % of HoCon Ab GpH7-B3/GpL16-k0 (=100) | – | B6
7 | 145 % of HoCon Ab GpH7-B3/GpL16-k0 (=100) | – | B7
8 | – | 112 % of HeCon Ab GpH7-A5/GpH7-B3/GpL16-k0 (=100) | B8
9 | 168 % of HoCon Ab GpH7-B3/GpL16-k0 (=100) | – | B9
10 | 206 % of HoCon Ab GpH7-B3/GpL16-k0 (=100) | – | B10
11 | – | 147 % of HeCon Ab GpH7-A5/GpH7-B3/GpL16-k0 (=100) | B11
12 | 150 % of HoCon Ab GpH7-B3/GpL16-k0 (=100) | – | B12
13 | – | 120 % of HeCon Ab GpH7-A5/GpH7-B3/GpL16-k0 (=100) | B13
14 | – | 122 % of HeCon Ab GpH7-A5/GpH7-B3/GpL16-k0 (=100) | B14
15 | – | 114 % of HeCon Ab GpH7-A5/GpH7-B3/GpL16-k0 (=100) | B15
16 | 118 % of HoCon Ab GpH7-B3/GpL16-k0 (=100) | – | B16
17 | 178 % of HoCon Ab GpH7-B3/GpL16-k0 (=100) | – | B17
18 | – | 104 % of HeCon Ab GpH7-A5/GpH7-B3/GpL16-k0 (=100) | B18
19 | 100 % of HoCon Ab GpH7-B3/GpL16-k0 (=100) | – | B19
20 | – | 103 % of HeCon Ab GpH7-A5/GpH7-B3/GpL16-k0 (=100) | B20
21 | – | 122 % of HeCon Ab GpH7-A5/GpH7-B3/GpL16-k0 (=100) | B21
22 | 163 % of HoCon Ab GpH7-B3/GpL16-k0 (=100) | – | B22
23 | 108 % of HoCon Ab GpH7-B3/GpL16-k0 (=100) | – | B23
24 | – | 233 % of HeCon Ab GpH7-A5/GpH7-B3/GpL16-k0 (=100) | B24
25 | – | 102 % of HeCon Ab GpH7-A5/GpH7-B3/GpL16-k0 (=100) | B25
26 | – | 207 % of HeCon Ab GpH7-A5/GpH7-B3/GpL16-k0 (=100) | B26
27 | – | 106 % of HeCon Ab GpH7-A5/GpH7-B3/GpL16-k0 (=100) | B27
28 | – | 109 % of HeCon Ab GpH7-A5/GpH7-B3/GpL16-k0 (=100) | B28
29 | 154 % of HoCon Ab GpH7-B3/GpL16-k0 (=100) | – | B29
